{
  "source": "paper PMC9599297",
  "about": "“Graphitic Carbon Nitride and IGZO Bio-FET for Rapid Diagnosis of Myocardial Infarction”",
  "molecular_target": "cardiac troponin I (cTnI) (UniProt P19429 2-210)",
  "sequence (P19429 2-210)": "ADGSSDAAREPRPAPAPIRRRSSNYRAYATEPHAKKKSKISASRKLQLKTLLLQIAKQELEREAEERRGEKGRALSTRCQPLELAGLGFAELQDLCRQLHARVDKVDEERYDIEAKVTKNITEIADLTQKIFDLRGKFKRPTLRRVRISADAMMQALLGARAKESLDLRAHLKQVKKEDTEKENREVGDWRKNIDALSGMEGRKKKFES",
  "assay": "FET aptasensor (IGZO/PCN-Au NPs), drain current change; 47% current change; response 0.01-1000 ng/mL, LOD 0.0066 ng/mL (no Kd); 10 mM PBS pH 7.4 (PBS tablets: 2.7 mM KCl, 137 mM NaCl), 10 min incubation, water wash; surface blocked with MCH and 0.10 mg/mL BSA; temperature not stated",
  "conditions": "protein: commercial",
  "data": [
    {"binder": "CGTGCAGTACGCCAACCTTTCTCATGCGCTGCCCCTTA (ssDNA, ThiC6 (thiol-C6) at 5' end, immobilised on Au NPs)", "note": "[Tro4 anti-cTnI DNA aptamer]", "values": [
      {"measurement": "binding result", "value": "binds"}
    ]}
  ]
}
